In patent US9289506B2, “Surface binding of nanoparticle based drug delivery to tissue” (Massachusetts Institute of Technology, priority 2013, dated 2016):

Assays:
[1] = Competitive binding of FITC-Avidin and unlabeled Avidin in cartilage (binding isotherm fit); parameters: species or system bovine; details: labeled Avidin ≦1 μM, no unlabeled Avidin, 3 day equilibration, 37° C.
Procedure: To test this hypothesis, competitive binding experiments were performed in which 3 mm diameter cartilage disks were equilibrated for 3 days in 300 μl buffer containing a fixed amount of (fluorescently labeled) FITC-Avidin (1 μM) and graded amounts of unlabeled Avidin (0, 10, 76, 100, and 203 μM). The disks were split into half disks to reduce the time needed for equilibration, which was performed in 96 well plates at 37° C. The uptake ratio, RU, was measured and plotted versus the total bath concentration of Avidin (labeled+unlabeled, FIG. 13), where RU is defined as the total concentration of Avidin inside the cartilage (bound (CB) plus free (CF)) per intra-tissue water weight, normalized to the Avidin concentration in the equilibration bath (CBath):
Labeled and unlabeled Avidin were held to partition into the cartilage identically. At very low concentration of the labeled Avidin (≦1 μM), a high uptake of ˜120 was observed. When unlabeled Avidin was added to the bath, both species (labeled and unlabeled) could compete for the same (constant) number of binding sites available in the tissue (site density NT). […] To model the data of FIG. 13, a first-order, bimolecular, reversible reaction was produced to describe binding of Avidin to a single dominant binding species within cartilage. A theoretical model was adopted, (Garcia et al., Arch Biochem Biophys, 2003) previously used for characterizing the binding of soluble insulin like growth factor-1 (IGF-1) to IGF-binding proteins (IGF-BPs) that are uniformly enmeshed and fixed within cartilage matrix. According to this model, the equilibrium molar concentration of free solute (CF), bound solute (CB), intra-tissue binding site density (NT) and the equilibrium dissociation constant (KEQ) are related by the binding isotherm:
[formula] which is similar in form to a Langmuir adsorption isotherm. […]
[formula] […] Thus, K is determined by both steric hindrance and electrostatic (Donnan) interactions. […]

[2] = Intra-articular injection of Avidin or Neutravidin in rat knee joints: penetration, uptake and retention in joint tissues
Procedure: Intra-articular (i.a.) injections of 50 μl of 50 μM Avidin (pI 10.5, 66 kDa, diameter ˜7 nm) or Neutravidin (neutral at pH 7, 60 kDa, diameter ˜7 nm) conjugated with Texas Red (both from Invitrogen, CA) were administered in the right knee joints of healthy 18-20 weeks old Fischer-344 rats (Charles River Laboratories). Following the injection, rat knees were flexed and extended to distribute the injected solute throughout the intra-articular space. Contralateral left knees were used as controls. Avidin injected rats were sacrificed at 4 different time points (6 h, 1 d, 4 d, 7 d) and Neutravidin injected rats were sacrificed after 1 day. The following tissue types were extracted from each joint: articular cartilage removed from the patellar groove, femoral condyle and tibial plateau using a scalpel; medial and lateral menisci; i.a. ligaments (ACL & PCL); patellar and quadriceps tendons; and femoral bone. 6 rats were used per treatment condition for a total of 30 rats. Using a digital caliper (Fisher Scientific), the joint thickness was measured before and after the injection at each time point to check for joint swelling indicating an inflammatory response to the injection.
Tissue samples extracted from the rat joints injected with Avidin-Texas Red (Excitation at 595 nm and emission at 615 nm) and sacrificed at 6 h were imaged using a confocal microscope (OLYMPUS, FluoView FV1000) at 10× magnification by taking Z stacks. Images were taken in X-Y plane, which represents the surface through which Avidin diffused. 3D images were reconstructed using Z stacking (slice thickness˜4.5 μm) and cross-sections in the X-Z plane of these 3D images were taken.
Tissue samples from all treatment conditions were then desorbed in 10×PBS for 48 h in 37° C. incubator to disrupt electrostatic interactions and release Avidin/Neutravidin into the desorption bath. […] At the end of the experiment, tissue samples were removed from the bath, lyophilized and the dry weight was measured. Fluorescence signal from desorption bath was quantified using a plate reader (Synergy HT, BioTek). […] The solute uptake was calculated as the concentration of labeled solute in the tissue samples normalized by tissue dry weight.
The half-life of Avidin was calculated by fitting an exponential curve to the experimental data:
Where, C0 is the initial and C(t) is the final Avidin concentration in tissue after time t and λ is the decay constant.

[3] = Equilibrium uptake and desorption of Avidin and NeutrAvidin in cartilage disks; type: in vitro ADME, bovine
Description: Cartilage disks were harvested from the femoropatellar grooves of 1-2 week old bovine calf knee joints (obtained from Research 87, Hopkinton, Mass.) as described previously (Patwari et al., Arthritis Rheum, 2003). Briefly, cylindrical cartilage disks (3 mm or 6 mm diameter) were cored using a dermal punch and then sliced to obtain the top 1 mm of cartilage with intact superficial zone. Cartilage disks for all treatment groups were matched for depth and location along the joint surface. The disks were then pre-equilibrated in PBS (without Ca^2±/Mg^2±) supplemented with protease inhibitors (Complete Protease Cocktail tablet in 50 mL PBS, Roche Applied Science, IN) in a 37° C., 5% CO2 incubator for 24-48 h.
Equilibrium uptake of Avidin and NeutrAvidin: 3 mm diameter, 1 mm thick cartilage explants were incubated for specific times in 300 μl of known concentration (3 μM) of FITC-Avidin and FITC-NeutrAvidin, supplemented with protease inhibitors at 37° C. in a 96 well plate format. After removal from the absorption baths, the disks were rinsed, gently wiped and then incubated in 1× or 10×PBS supplemented with protease inhibitors for 24 h or longer as specified. At the end of the experiment, the surfaces of each disk were quickly blotted with Kimwipes and the wet weight was measured. The disks were then lyophilized and the dry weight was measured; the water weight was calculated from the tissue wet and dry weights. The fluorescence signal in the absorption and desorption baths was quantified using a plate reader (1400 Wallace Victor, PerkinElmer, MA); the solute content inside the cartilage disk was determined from the difference between the fluorescence reading of the absorption/desorption baths before and after incubation. […] The solute uptake ratio was calculated as the concentration of the FITC-solute in the cartilage (per intra-tissue water weight) normalized to the concentration of FITC-solute in the equilibration bath.

[4] = One-way diffusion of solutes into cartilage half disks in transport chamber, confocal microscopy imaging; type: in vitro ADME, bovine; details: normal cartilage, 4 days
Description: Solute Types: Two types of 15 nm diameter (MW˜300 kDa) Quantum Dots (QD) were used: (i) positively charged, and (ii) charge-neutral; same concentration. Transport of FITC (MW˜300 Da, diam˜0.9 nm) and dextrans (Dex) conjugated with FITC (Sigma Aldrich) of different MW (˜8 kDa, diam˜4.3 nm; ˜40 kDa, diam˜10 nm) were also investigated.
Transport Studies: A special PMMA transparent transport chamber was designed to allow diffusion of solutes into only one side (superficial zone) of the cartilage disk. The chamber was treated with Casein to block non-specific binding of solutes to chamber surfaces. The equilibrated cartilage disks were then cut into halves and placed in the middle of the ‘slot chambers’ of the fixture. The chamber side facing the superficial zone was filled with ˜45 μl of solute-PBS solution; the other side was filled with 1×PBS alone. […]
Using a scalpel, a slice (100-200 μm thick) was then cut from the center of each disk (FIG. 1B). […] Appropriate filters were chosen to eliminate auto-fluorescence of cartilage at the settings used for imaging. […] To ensure proper image comparison, solute concentrations were chosen such that the FITC concentration in each solution was identical, thereby giving equal fluorescence intensities.

[5] = rabbit knee; cited from earlier work
[6] = Non-equilibrium diffusive transport across cartilage disks (transport cell); type: in vitro ADME, bovine; details: free FITC added upstream at t=186 min
Procedure: Real-time measurement of diffusive transport of Avidin and NeutrAvidin through young bovine cartilage disks (with intact superficial zone) was measured using a diffusion chamber consisting of two compartments as described previously (Garcia et al., Arch Biochem Biophys, 2003). Groups of three cartilage disks (6 mm diameter, 400 μm thick) were clamped by O-rings between the two compartments of the diffusion chamber (with total exposed tissue area for transport of 0.28 cm^2/disk), such that solute transport from the upstream compartment into and across the cartilage disks, simultaneously, could occur only from the superficial zone of the cartilage (schematic shown in the inset of FIG. 14). The compartments were treated with casein to prevent non-specific adsorption of solutes to the chamber surfaces. […] Aliquots were taken from each chamber at different time intervals, and fluorescence was measured using a plate reader.
The compartment volume of 25 ml is approximately 1,000× larger than the volume of the cartilage plugs in the configuration of FIG. 14 (inset). […] This configuration thereby focuses on quantitation of steady state solute flux and assessment of effective solute diffusivity within cartilage. […]
[formula] where δ is the thickness of the cartilage disk (˜400 μm). DEFF for Avidin was calculated to be 3.8×10^−7 cm^2/s. […]

[7] = pH 7
Description: For the non-covalent conjugation, drug was entrapped inside Avidin structure supra-molecularly, while an ester linker and/or pH sensitive hydrazone linker was utilized for the covalent conjugation.

Avidin-FITC: FITC-conjugated Avidin [reference compound]
uptake ratio RU [1]: ~120

NeutrAvidin: electrically neutral globular protein at pH 7, 60 kDa, diameter ~7 nm; neutral counterpart of Avidin [reference compound]
presence in rat cartilage and patellar tendon ([2]; 24 h after i.a. injection): no Neutravidin present | presence in meniscus, ligaments and quadriceps tendon ([2]; 24 h after i.a. injection, compared to Avidin): small but very insignificant amounts | detection in the femoral bone ([2]; any time point): Neither Avidin nor Neutravidin was detected | clearance from joint after i.a. injection ([2]; within 24 h): almost complete clearance | percent of absorbed solute diffused out of the cartilage ([3]; 1×PBS, within 1 day): About 50% | mean uptake ratio ([3]; 40% GAG-depleted cartilage (chondroitinase-ABC), 24 h): 0.55 | partition coefficient KNeutrAvidin ([3]; estimated from the data of FIG. 12B): 0.44 | mean uptake ratio ([3]; normal cartilage, 24 h): 0.28 | mean uptake ratio ([3]; normal cartilage, 4 days): ~0.44 | penetration into cartilage explant [4]: penetrated approximately half the sample thickness

albumin
Half-life [5]: 1.23 to 3.9 h

fluorescein isothiocyanate [Fluorescein Isothiocyanate (FITC), reference compound]
diffusivity [6]: 2.8×10^−5 cm^2/s

hydrazone linker: Avidin conjugated with dexamethasone through pH sensitive hydrazone linkage via biotinylated PEG (FIG. 21C, FIG. 24)
stability of linker [7]: extremely stable
